Measured values: PMC6890786, “Pseudomonas aeruginosa uses multiple receptors for adherence to laminin during infection of the respiratory tract and skin wounds” (Scientific Reports, 2019)

B1: recombinant OprD of P. aeruginosa PAO1, 6xHis-tagged (natural protein)
chain: DAFVSDQAEAKGFIEDSSLDLLLRNYYFNRDGKSGSGDRVDWTQGFLTTYESGFTQGTVGFGVDAFGYLGLKLDGTSDKTGTGNLPVMNDGKPRDDYSRAGGAVKVRISKTMLKWGEMQPTAPVFAAGGSRLFPQTATGFQLQSSEFEGLDLEAGHFTEGKEPTTVKSRGELYATYAGETAKSADFIGGRYAITDNLSASLYGAELEDIYRQYYLNSNYTIPLASDQSLGFDFNIYRTNDEGKAKAGDISNTTWSLAAAYTLDAHTFTLAYQKVHGDQPFDYIGFGRNGSGAGGDSIFLANSVQYSDFNGPGEKSWQARYDLNLASYGVPGLTFMVRYINGKDIDGTKMSDNNVGYKNYGYGEDGKHHETNLEAKYVVQSGPAKDLSFRIRQAWHRANADQGEGDQNEFRLIVDYPLSIL
notes: OprD (porin D, OccD1) of P. aeruginosa PAO1; open reading frame amplified from PAO1 genomic DNA and cloned into pET26(b)+; Labelled with 10 nm colloidal gold for TEM; also called porin D; OccD1; source: E. coli BL21(DE3), purified (Ni-NTA)
B2: recombinant Paf of P. aeruginosa, 6xHis-tagged (natural protein)
chain: EDGKRLRIGITLHPYYSYVSNIVGDKAEVVPLIPAGFNPHAYEPRAEDIKRIGTLDVVVLNGVGHDDFAERMIASSEKPGIPVIEANAKVPLLAATGMAARGAGKVVNPHTFLSISASITQVNTIARELGKLDPANAKAYTRNARAYAKRLRALRADALARLNKAPAADFRVATIHGAYDYLLREFGLEVTAVVEPAHGIEPSPSQLKKTIDQLKALDVKVIFSEIDFPSTYVETIQRESGVKLYSLSHISYGDYSAGKYEEEMARNLDTVVRAIQESGA
B3: recombinant EstA of P. aeruginosa PAO1, 6xHis-tagged (natural protein)
chain: APSPYSTLVVFGDSLSDAGQFPDPAGPAGSTSRFTNRVGPTYQNGSGEIFGPTAPMLLGNQLGIAPGDLAASTSPVNAQQGIADGNNWAVGGYRTDQIYDSITAANGSLIERDNTLLRSRDGYLVDRARQGLGADPNALYYITGGGNDFLQGRILNDVQAQQAAGRLVDSVQALQQAGARYIVVWLLPDLGLTPATFGGPLQPFASQLSGTFNAELTAQLSQAGANVIPLNIPLLLKEGMANPASFGLAADQNLIGTCFSGNGCTMNPTYGINGSTPDPSKLLFNDSVHPTITGQRLIADYTYSLLSAPWELTLLPEMAHGTLRAYQDELRSQWQADWENWQNVGQWRGFVGGGGQRLDFDSQDSAASGDGNGYNLTLGGSYRIDEAWRAGVAAGFYRQKLEAGAKDSDYRMNSYMASAFVQYQENRWWADAALTGGYLDYDDLKRKFALGGGERSEKGDTNGHLWAFSARLGYDIAQQADSPWHLSPFVSADYARVEVDGYSEKGASATALDYDDQKRSSKRLGAGLQGKYAFGSDTQLFAEYAHEREYEDDTQDLTMSLNSLPGNRFTLEGYTPQDHLNRVSLGFSQKLAPELSLRGGYNWRKGEDDTQQSVSLALSLDF
notes: EstA, autotransporter esterase of P. aeruginosa PAO1; open reading frame amplified from PAO1 genomic DNA and cloned into pET26(b)+; Labelled with 10 nm colloidal gold for TEM; source: E. coli BL21(DE3), purified (Ni-NTA)

Assays:
Assay in all cases: BLI; OctetRed96; bacterial proteins immobilised on AR2G sensors by amino coupling; laminin-111 as analyte, 1.63 to 100 nM in PBS; 30 °C
[1] = target: recombinant PA3923 of P. aeruginosa PAO1, 6xHis-tagged (P. aeruginosa PAO1) (UniProt Q9HX90)
[2] = target: recombinant OprG of P. aeruginosa PAO1, 6xHis-tagged (P. aeruginosa PAO1) (UniProt Q9HWW1)
[3] = target: T1, Engelbreth-Holm-Swarm murine sarcoma laminin-111 (mouse, UniProt P19137 25-3083; P02469 22-1786; P02468 34-1607); settings: both partners purified
T1 construct: laminin alpha chain of laminin-111 (laminin subunit alpha-1), mouse; carries LG1-5 at its C-terminal end; laminin beta chain of laminin-111 (laminin subunit beta-1), mouse; laminin gamma chain of laminin-111 (laminin subunit gamma-1), mouse; Heterotrimer alpha/beta/gamma; Labelled with colloidal gold for the TEM experiment; also called L2020; source: bought: Sigma-Aldrich (L2020), …

Molecule | Kd [1] | Kd [2] | Kd [3]
Engelbreth-Holm-Swarm murine sarcoma laminin-111 (from UniProt P19137 25-3083; P02469 22-1786; P02468 34-1607) (complex) | 6.9 nM | 4.7 nM | –
B1 | – | – | 22 nM
B2 | – | – | 2.8 nM
B3 | – | – | 1.7 nM
